Measurements as given in patent US9113649B2, “Food additive comprising an amidase for detoxifying ochratoxin” (DuPont Nutrition Biosciences ApS, priority 2010, dated 2015).
Where two headings read alike, the source gives them in different places.

Legend:
[1] = rat, in vivo; cited from earlier work
[2] = format: biochemical; conditions: for ability to degrade ochratoxin A: enzyme screen, 20 h
Description: Activity was expressed in % OT-α (product of OTA) area: the area corresponding to the product divided by the total area (peak area of OTA plus OT-α).
The buffers employed in the assay were: 50 mM sodium acetate buffer (pH 4, 4.5, 5 and 5.5); 50 mM MES buffer (pH 6, 6.5 and 7); 0.2M Mops-NaOH) pH7.0), 50 mM Tris-HCl buffer (pH 7.5, 8 and 8.5). Ochratoxin A (OTA) solution (1 mg/mL) was made of 5 mg ochratoxin A (Sigma, ref. 32937) dissolved in ethanol/water (60/40) and stored at −20° C. Screening assays were performed with […] OTA solution and different enzyme concentrations (for example, 0.1-5 mg/ml) in a final volume of 300 μL. Enzymatic reactions were done at 37° C. for 20 h±1 h under constant agitation. Samples were filtered using syringe filter 0.20 μm for HPLC analysis. The HPLC apparatus consisted of a Dionex P580 pump and Dionex ASI-100 autosampler connected to a Dionex RF-2000 fluorescence detector (λex=333 nm; λem=460 nm) and a Dionex UVD340 U UV detector at 257 nm. Elution was through a nucleosil 100-5 C18 column (250×4.6 mm, 5 μm particle size; Chrompack) with water/acetonitrile/acetic acid (100:100:1, v/v/v) at a 0.6 mL/min flow-rate. The column was kept at 30° C. and was connected to guard column (C18, 1 mm, Optimize technologies). The OTA and its degradation products were monitored both by uv at 235 nm and fluorescence (excitation at 278 nm emission at 440 nm).
Thirty enzymes including various lipases, proteases and amdiases were investigated for their ability to degrade ochratoxin A (Table 1). […] To facilitate the comparison of these three enzymes, the protein concentration of PEPAd was determined and enzyme solutions of carboxypeptidase A and Amano™ lipase A were prepared at the same concentration (1 mg/ml). A kinetic of the degradation was carried out (FIG. 1). […] Amano™ lipase A product was a mixture of different enzymes with the dominant activity being lipase. […] Other proteases, lipases and amidases listed in Table 1 were not able to break OTA down (data not shown).

[3] = Abrunhosa et al., Toxins 2010; cited from earlier work
[4] = activity of three fungal amidases on ochratoxin A (intracellular cell-free fraction); format: biochemical; conditions: for Activity on ochratoxin A expressed as ochratoxin A peak area: remaining OTA, 20 μl intracellular cell-free fraction, pH7, 23° C., 17 h
Description: The reaction mixture using OTA as substrate consisted of 75 μl phosphate (67 mM, pH7), 5 μl OTA (2.4 μg/ml) and 20 μl intracellular cell-free fraction. The reaction was performed at 23° C. for 17 h and stopped by adding 0.15 ml acetonitrile and analyzed on HPLC with an injection volume of 5 μl.

| Molecule | ability to degrade ochratoxin A ([2]; 37° C.) | Activity on ochratoxin A expressed as ochratoxin A peak area [4] | other results |
| --- | --- | --- | --- |
| C[C@@H]1Cc2c(Cl)cc(C(=O)O)c(O)c2C(=O)O1 [ochratoxin α] | – | – | elimination half-time in the body [1]: 9.6 h |
| C[C@@H]1Cc2c(Cl)cc(C(=O)N[C@@H](Cc3ccccc3)C(=O)O)c(O)c2C(=O)O1 [OTA, ochratoxin A] | – | – | elimination half-time in the body [1]: 103 h |
| porcine elastase: serine protease elastase from porcine pancreas (Sigma E0258) [reference compound] | showed certain activity with OTA | – | – |
| carboxypeptidase A: Carboxypeptidase A from bovine pancreas (Sigma) (protein, listed as Bos taurus) MQGLLILSVLLGAALGKEDFVGHQVLRITAADEAEVQTVKELEDLEHLQLDFWRGPGQPGSPIDVRVPFPSLQAVKVFLEAHGIRYRIMIEDVQSLLDEEQEQMFASQSRARSTNTFNYATYHTLDEIYDFMDLLVAEHPQLVSKLQIGRSYEGRPIYVLKFSTGGSNRPAIWIDLGIHSREWITQATGVWFAKKFTEDYGQDPSFTAILDSMDIFLEIVTNPDGFAFTHSQNRLWRKTRSVTSSSLCVGVDANRNWDAGFGKAGASSSPCSETYHGKYANSEVEVKSIVDFVKDHGNFKAFLSIHSYSQLLLYPYGYTTQSIPDKTELNQVAKSAVEALKSLYGTSYKYGSIITTIYQASGGSIDWSYNQGIKYSFTFELRDTGRYGFLLPASQIIPTAQETWLGVLTIMEHTLNNLY | able to breakdown OTA | – | ochratoxin degrading activity [3]: low ochratoxin degradding activity; conversion of OTA ([2]; after 7 h reaction at 37° C., enzyme 1 mg/ml): full conversion of OTA was obtained |
| amidase from Aspergillus oryzae: hypothetical protein from Aspergillus oryzae (XP_001826758) expressed intracellularly in Aspergillus niger (protein, listed as Aspergillus oryzae) MHRMLTDDRLYRVDADLLIPGKGDPIPHGAVVWQCKTIRYAGPRSGVPTEFQGATTTHVPVVMPGMWDCHIHFLGATAATMNAIVDTPQALAGARSVPDLHATVMAGFTSVREVGGYGCDLAKAVGEGRIPGPNIYSSHSAISMTAGHGDVHGVHRDSLLDLCAHGLPLTIADGVPECLLAVRKQLRRGAKVIKVCASGGVVSAIDDPQHQEFSFEELKAIVDEAARARRVVAAHCHGKAGIMNALRAGCRTIEHGSFLDEEAVGLMKEKGAILVATRSVIESGLAMKDLFTPSSYQKLLAVADAHRKAYQLAISRGVTIALGTDQFISSDNPMIGYGRNGHEVRYAVDAGLTPLAAIEAATANGPLTLGYQAPQSGQLKEGYDADIIAVRENPLENVAVLSNSKNVTHVWRGGMLIKS | – | 8.57 | – |
| yeast carboxypeptidase Y: Carboxypeptidase Y from baker's yeast (Saccharomyces cerevisiae) (protein, listed as Saccharomyces cerevisiae) MKAFTSLLCGLGLSTTLAKAISLQRPLGLDKDVLLQAAEKFGLNLDLDHLLKELDSNVLDAWAQIEHLYPNQVMSLETSTKPKFPEAIKTKKDWDFVVKNDAIENYQLRVNKIKDPKILGIDPNVTQYTGYLDVEDEDKHFFFWTFESRNDPAKDPVILWLNGGPGCSSLTGLFFELGPSSIGPDLKPIGNPYSWNSNATVIFLDQPVNVGFSYSGSSGVSNTVAAGKDVYNFLELFFDQFPEYVNKGQDFHIAGESYAGHYIPVFASEILSHKDRNFNLTSVLIGNGLTDPLTQYNYYEPMACGEGGEPSVLPSEECSAMEDSLERCLGLIESCYDSQSVWSCVPATIYCNNAQLAPYQRTGRNVYDIRKDCEGGNLCYPTLQDIDDYLNQDYVKEAVGAEVDHYESCNFDINRNFLFAGDWMKPYHTAVTDLLNQDLPILVYAGDKDFICNWLGNKAWTDVLPWKYDEEFASQKVRNWTASITDEVAGEVKSYKHFTYLRVFNGGHMVPFDVPENALSMVNEWIHGGFSL | showed certain activity with OTA | – | ochratoxin degrading activity [3]: low ochratoxin degradding activity |
| PEPAd: a Danisco aspartic acid protease cloned from A. niger (protein, Aspergillus niger) MHLPQRLVTAACLCASATAFIPYTIKLDTSDDISARDSLARRFLPVPNPSDALADDSTSSASDESLSLNIKRIPVRRDNDFKIVVAETPSWSNTAALDQDGSDISYISVVNIGSDEKSMYMLLDTGGSDTWVFGSNCTSTPCTMHNTFGSDDSSTLEMTSEEWSVGYGTGSVSGLLGKDKLTIANVTVRMTFGLASNASDNFESYPMDGILGLGRTNDSSYDNPTFMDAVAESNVFKSNIVGFALSRSPAKDGTVSFGTTDKDKYTGDITYTDTVGSDSYWRIPVDDVYVGGTSCDFSNKSAIIDTGTSYAMLPSSDSKTLHSLIPGAKSSGSYHIIPCNTTTKLQVAFSGVNYTISPKDYVGATSGSGCVSNIISYDLFGDDIWLLGDTFLKNVYAVFDYDELRVGFAERSSNTTSASNSTSSGTSSTSGSTTTGSSTTTTSSASSSSSSDAESGSSMTIPAPQYFFSALAIASFMLWL | showed an OTA converting activity although this was less efficient | – | conversion of OTA ([2]; after 1 day reaction, 37° C., same protein concentration (1 mg/ml)): full conversion was not reached |
| amidase from Metarhizium anisopliae: putative amidohydrolase from Metarhizium anisopliae (EFZ00058) expressed intracellularly in Trichoderma reesei (protein, listed as Metarhizium anisopliae) MTRRVIPHSESAESVDDAQHVSGRIYSTGFGIAVRTGQPQSQDDDAETGVKKVFYTIVMTKLLIPGDGEPIKDAALVVKNKIIDWVGRQADLPNEYTEKPHKLHNVPYLMPGLWDCHVHFAGSNGEREAEEGSTGLSFLADHPTTAGARLARGCWDAIQRGYTSMRDLAGFGCEISKAIEDGVIIGPNIYSAGACLSQLAGHGDVFALPAGDALLNLGLASVKAGQFGAGMSCLVDGVDECRRGVRLQIRRGAKCIKVMASGGVLSRDDNPLYAQFSREELDTIVSEAKRMERTVAAHVHGKPGILQAVEAGVTSVEHVSFADQECIDLIKDRGTIFVGTRTIVNLLLDSKGEGMPKKMWEKAKLVGTHSLEGYKKAIKAGCTIALGTDTEPGFNMAIELQYAVEAGMSSLEAIKAATANGPLTVAGQAPLTGQLKAGYEADMIGVCDNPVEDVKVLQKKSNIGWVWKGGKLFKGPGIGPWGEEL | – | 0.96 | activity in degrading ochratoxin A (in words) [4]: showed activity in degrading ochratoxin A |
| amidase from Glomerella graminicola: putative amidohydrolase from Glomerella graminicola (EFQ25792) expressed intracellularly in Trichoderma reesei (protein, listed as Glomerella graminicola) MGGSFRPNYADGPEPPFSPTKKTTLVIIKTSLLIPGDGEPLKDGALVISSKVIAWVGPQSSLPSEYADSPHRSYTVPYLMPGLWDCHAHFGGESPNDDGGNDPYQVFITEHPAASGARLTRGCWLALQRGYTSLRDVAGLGCEVSRAIEDGSIVGPNVYSSGSGLSQLAGHGDIFSLPAGDVLLNLGVSQITPGHFGTHATMIVDGVDECRRAVRLQIRRGAKCIKVMASGGVMSRDDNPNYAQFSAAELETIVEEATRQNRVVAAHVHGKAGILAAINAGVTTLEHASFADRECIDLIKEKGIVYIATRIVVHLLLSTGGKGLPPTVWEKAKLVAKNHMTAYKMAIESGVQIALGTDTGPGYNMATELECAVEAGMSNLEAIKAATANGPLSVGGQAPKTGQLKVGYEADVIGLLQNPVEDVKVLQKVDNVGWVWKGGKLFKGPGVGPWGEEPGVWEDITGVSRLRCTTGY | – | 0.68 | – |
